Source: patent US20090022659A1 (ALDERBIO, published 2009)

Columns and labels:
[1] = target: T1, Tumor Necrosis Factor-alpha (TNF-α), R&D systems 210-TA / 210-TA-CF (human, UniProt P01375 77-233); test: biolayer interferometry (Octet QK); biotinylated TNF-α on streptavidin sensor, antibody 8 nM to 1 nM
T1 construct: Bought protein; also called huTNF-α
Experimental: Binding kinetics of certain Anti-TNF-α antibodies referenced in this experiment were determined using biolayer Interferometry on an Octet QK instrument (ForteBio, Menlo Park, Calif.). Biotinylated TNF-α (R&D systems part number 210-TA, biotinylated using Pierce EZ-link sulfo-NHS-LC-LC-biotin product number 21338 according to manufacturer's protocols) was initially bound onto a streptavidin coated biosensor (ForteBio, Menlo Park, Calif. part number 18-5006). TNF-α coated sensors were then incubated with the Anti-TNF-α antibodies at concentrations ranging from 8 nM to 1 nM. Binding was monitored as an increase in signal over a period of 900 seconds.
Sensors removed from the antibody dilutions and immediately incubated in diluent were monitored for a dissociation phase over an 1800 second time period. For these studies, all proteins were diluted using ForteBio's sample diluent buffer (ForteBio, Menlo Park, Calif. part number 18-5028). Analysis of Kinetic data was performed using ForteBio Software utilizing full dissociation modeling.

[2] = target: T1, Tumor Necrosis Factor-alpha (TNF-α), …; test: OD versus antibody concentration, fitted sigmoid; the assay is not named for this figure (legend: binding affinity of the anti-TNF-α antibody Ab1); the unit is that of the concentration axis, none stands beside the number
[3] = target: T1, Tumor Necrosis Factor-alpha (TNF-α), …; test: OD versus antibody concentration; the assay is not named for this figure (legend: binding affinity of the anti-TNF-α antibody Ab1)
[4] = target: T1, Tumor Necrosis Factor-alpha (TNF-α), …; test: cell-based or functional assay

T1 sequence (P01375 77-233 limits assumed): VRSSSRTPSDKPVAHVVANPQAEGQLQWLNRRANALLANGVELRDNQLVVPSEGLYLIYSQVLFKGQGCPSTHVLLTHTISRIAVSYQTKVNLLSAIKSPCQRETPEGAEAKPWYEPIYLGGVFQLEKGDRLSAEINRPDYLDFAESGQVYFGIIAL

Binder	Kd [1]	also measured
anti-TNF-α antibody Ab12 (antibody, V domains shown) VH: QSVEESGGRLVTPGTPLTLTCTVSGFSLSHYAMGWVRQAPGKGLEWIGIISSNGVTYYATWASGRFTISKTSTTVDLKITSPTTEDTATYFCARGDDTSIIYYIYAFDL VL: ALVMTQTPSPVSAAVGGTVTISCQSSESVVFNNRLSWYQQKPGQPPKLLIYWASTLASGVPSRFKGSGSGTQFTLTISGVECDDAATYYCAGYKSYSNDDFA	0.01 to 0.025 nM	–
anti-TNF-α antibody Ab2 (antibody, V domains shown) VH: QSVEESGGRLVTPGTPLTLTCSVSGFSLNNYVMGWVRQAPGKGLEFIGYIAFGIGPYYASWAKGRFTISSTSSTTVDLKMTSLTPEDTATYFCARGDYSGNDI VL: ADIVMTQTPSSVSEPVRGTVTIKCQASQNIYSYLSWYQQSPGQPPKLLIYKASTLASGVPSRFKGSGSGTDFTLTISDLECADAATYYCQSNYGSDSDSFGNA	0.01 nM	–
anti-TNF-α antibody Ab16 (antibody, V domains shown) VH: QSLEESGGRLVKPDETLTITCTVSGIDLNNYNMGWVRQAPGKGLEYIGYILGSGITYYATWAKGRFTISKTSSTTVDLKMTSLTTEDTATYFCAGSIYYRGYGMDP VL: ADIVMTQTPASVSEPVGGTVTIKCQASQTIYSSLSWYQQKPGQRPKLLIYAASTLASGVPSRFKGSGSGTDFTLTISDLECADAATYYCQSNHGSNSDSYGNA	0.01 nM	–
anti-TNF-α antibody Ab19 (antibody, V domains shown) VH: QSVEESGGRLVTPGTPLTLTCSVSGFSLNNYIMGWVRQAPGKGLEFIGYIAFGIGPYYASWAKGRFTSSSTSSTTVDLKMTSLTPEDTATYFCARGDVSGNDI VL: ADIVMTQTPSSVSEPVRGTVTIKCQASQNIYSYLSWYRQSPGQPPNLLIYKASTLASGVPSRFKGSGSGTDFTLTISDLECADAATYYCQSNYGSNSDSFGNA	0.06 nM	–
anti-TNF-α antibody Ab8 (antibody, V domains shown) VH: QSVEESGGRLVTPGTPLTLTCTASGFSLSNYVMGWVRQAPGKGLEFIGYIAFGIGPYYATWAKGRFSISSTSSTTVDLTMTSLTPEDTATYFCARGDYSGNNI VL: ADIVMTQTPSSVSEPVGGTVTIMCQASQNIYSYLSWYQQKPGQPPKLLIYKASTLASGVPSRFAGSGSGTDFTLTISDLECADAATYYCQSNYGSNSDSFGNA	0.01 nM	–
anti-TNF-α antibody Ab1 (antibody, V domains shown, Rabbit-derived; they start with the leader peptide and end at CDR3 (no framework 4); no cleavage site is stated for this antibody) VH: QSVEESGGRLVTPGTPLTLTCTVSGFSLSTYNMGWVRQAPGKGLEYIGYVLGSGITYYASWAKGRFTISKTSTTVDLEITSPTTEDTATYFCARDAGGRASL VL: ADIVMTQTPASVEAAVGGTVTIKCQASQNIRSWLAWYQQKPGQPPKLLIYGASTLASGVPSRFQGSGSGTEYTLTIIDLDCADAATYYCQSNYGSNDNSYGNG	0.01 nM	EC50 [2]: 0.0461 µg/mL; EC50 (read off the curve) [3]: ~0.05 µg/mL; EC50 (read off the curve); OD versus antibody concentration (the assay is not named for this figure) [4]: ~0.0006 µg/mL
anti-TNF-α antibody Ab7 (antibody, V domains shown) VH: QSVEESGGRLVTPGTPLTLTCTVSGFSLSSDNMGWVRQAPGKGLEYIGYITYGGFTYYATWAKGRFTISKTSTTVDLKMTSPTTEDTATYFCAREAGGRANV VL: ADIVMTQTPASVEAAVGGTVTINCQASQSIVSWLAWYQQKPGQPPKLLIYGASTLASGVPSRFKGSGSGTEYTLTISDLECADAATYYCQSNYGSNSHSFGNT	0.01 nM	–
anti-TNF-α antibody Ab13 (antibody, V domains shown) VH: QSVEESGGRLVTPGTPLTLTCTVSGIDLSSYAMGWVRQAPGKGLEYIGYILSSGITYYASWARGRFTISKTSSTTVDLKMTSLTTEDTATYFCARNGNYNSGTDI VL: ADIVMTQTPASVSEPVGGTVTIKCQASQNIYSTLAWYQQKPGQPPKLLIYLASTLASGVPSRFKGSGSGTQFTLTISDLECADAATYYCQTSHGSNSDSFGYA	0.01 to 0.05 nM	–
anti-TNF-α antibody Ab18 (antibody, V domains shown) VH: QSVEESGGRLVTPGTPLTLTCTVSGIDLSSYAMGWVRQAPGKGLEYIGYILSSGITYYASWARGRFTISKTSSTTVDLKMTSLTTEDTATYFCVRNGNYNVGTDI VL: ADIVMTQTPASVSEPVGGTVTIKCQASQNIYSTLAWYQQKPGQPPKLLIYLASTLESGVPSRFKGSGSGTEFTLTISDLECADAATYYCQTSHGSNSESFGYA	0.01 nM	–
anti-TNF-α antibody Ab14 (antibody, V domains shown) VH: QSVEESGGRLVTPGTPLTLTCTVSGFSLSSYAMGWVRQAPGKGLEYIGYIGSSGITYYTSWARGRFTISKPSSTTVDLKMTSLTTEDTATYFCARNGNYNSGTDI VL: ADIVMTQTPASVSEPVGGTVTIKCQASQNIYSTLAWYQQKPGQPPKLLIYLASTLASGVPSRFKGSGSGTQFTLTISDLECADAATYYCQTNHGSNSDSFGYA	0.01 nM	–
anti-TNF-α antibody Ab17 (antibody, V domains shown) VH: QSLEESGGRLVTPGGSLTLTCTVSGIDLSSYAMGWVRQAPGKGLEYIGYVLGSGITYYASWARGRFTISKTSSTTVDLKMTSLTTEDTATYFCVRNDNYNSGTDI VL: ADIVMTQTPASVSEPVGGTVTIKCQASQSIYSTLAWYQQKPGQPPKLLISLASTLASGVPSRFKGSGSGTQFTLTISDLECADAATYYCQTNHGSNSDSFGYA	0.01 nM	–
anti-TNF-α antibody Ab4 (antibody, V domains shown) VH: QSVEESGGRLVTPGTPLTLTCTVSGLSLSTETINWVRQAPGKGLEWIGYIDSSGGTGYANWARGRFTISKTSTTVDLKITSPTTGDTATYFCARGTITTGMNI VL: MDTRAPTQLLGLLLLWLTGATFAAVLTQTPSPVSAVVGGTVSISCQSSKRVVNSVALSWYQQKPGRSPKLLIYFASKLASGVPSRFKGSGSGTQFTLAISDVQCDDAATYYCAGHYTDSGDDA	0.01 nM	–
anti-TNF-α antibody Ab6 (antibody, V domains shown) VH: METGLRWLLLVAVFKGVQCQSVEESGGRLVTPGTPLTLTCTVSGFSLSSNTISWVRQAPGKGLEWIGYIWRGVSTYYATWAKGRFTISKTSSTTVDLKITGPTTEDTATYFCARDAGDGGGYSLDL VL: MDTRAPTQLLGLLLLWLPDARCAYDMTQTPASVEVAGGGTVTIKCQASQSIANRLAWYQQKPGQPPKLLIYYASTLASGVPSRFSGSGSGTEFTLTISGVQCDDAATYYCQQTYSDNNVDNA	0.01 nM	–
anti-TNF-α antibody Ab3 (antibody, V domains shown) VH: QSVEESGGRLVTPGTPLTLTCKVSGFSLSSYDMTWVRQAPGKGLEWIGYIWNDGSTAYASWATGRFTISKTSTTVDLKIASPTTEDTATYFCARGPVFATTLGYYFTI VL: MDTRAPTQLLGLLLLWLPGSTFAIKVTQTPASVSAAVGGTVSINCQASEDIESYLAWYQQKPGQPPKLLLYDASALASGVPSRFKGSGSGTEYTLTISGVECADAATYYCQQGYSYSNVDNS	0.02 to 0.04 nM	–
anti-TNF-α antibody Ab15 (antibody, V domains shown) VH: QSVEESGGRLVSPGTPLTLTCTVSGIDLSSYGMGWVRQAPGKGLEYIGYMIASGITYYAAWAKGRFTISKTSSTTVDLKITSPTTEDTATYFCARNYYGMDP VL: ADIVMTQTPASVSEPVGGTVTIKCQASQSIYSSFSWYQQIPGQRPKLLIYYASTLASGVPSRFSGSGSGTDFTLTISDLECADAATYYCQSNHGSNGDSFGNA	0.01 nM	–
anti-TNF-α antibody Ab9 (antibody, V domains shown) VH: QSVEESGGRLVTPGTPLTLTCTVSGFSLSIYWMTWVRQAPGKGLEWIGVISTDGSAYYATWAKGRFTISKTSSTTVDLRITSPTTEDTATYFCAGGGGMDP VL: AQVLTQTPSSVSAAVGGTVTVSCQSSQNVYNNNDFVWFQQKPGQPPKRLIYWASTLASGVPSRFKGSGSGTQFTLTINDLECDDAATYYCAGAYITELRT	0.025 to 0.05 nM	–
anti-TNF-α antibody Ab11 (antibody, V domains shown) VH: QSVEESGGRLVTPGTPLTLTCTVSGFSLSIYWMTWVRQAPGKGLEWIGVIASDGSTYYASWAKGRFTISKASSTTVDLKIASPTIEDTATYFCAGGGGMDP VL: AQVMTQTPASVSAAVGGTVTISCQSSESVYNNNDLIWFRQKPGQPPKRLIYWASQLASGVSSRFKGSGSGTQFTLTINDLECDDAATYYCAGAYDSEIRA	0.02 nM	–
anti-TNF-α antibody Ab10 (antibody, V domains shown) VH: QSVEESGGRLVTPGTPLTLTCTVSGFSLSIYWMTWVRQAPGRGLEWIGVISTDGTTYYANWAKGRFTISKASSTTVDLRITSPTTEDTATYFCAGGGGMDP VL: AQVLTQTASSVSAAVGGTVTISCQSSQSVYNNNDFIWFQQKPGQPPKRLIYWASTLASGVSSRFKGSGSGTQFTLTINDLECDDAAVYYCAGAYDSEVRA	0.015 to 0.03 nM	–
anti-TNF-α antibody Ab5 (antibody, V domains shown) VH: QSVEESGGRLVTPGTPLTLTCAVSGFSLSVYWMTWVRQAPGKGLEWIGTISTDGITVYATWAKGRFTISKTSSTAVDLKLTSPTTEDTATYFCAGGGGMDP VL: MDTRAPTQLLGLLLLWLPGATLAQVVTQTPASVSAAVGGTVTISCQSSQNVYNNNDLVWFQQKPGQPPKRLVYWASTLASGVSSRFRGSGSGTQFILTISDLQCDDAATYYCAGAYDSEIRA	0.025 to 0.05 nM	–
